Legend:
[1] = target: T1, KIR2DL5 wild type (KIR2DL5A*001) expressed on cells (human, UniProt Q8N109 22-375); experiment: flow cytometry, blocking: KIR2DL5/3T3 cells preincubated with serial F8B30, then 20 µg/mL PVR-Ig
T1 construct: UniProtKB Q8N109 and NP_065396.1 are printed for this entry; In the SHP-1/SHP-2 co-immunoprecipitation the cells were treated with pervanadate and the receptor was tyrosine-phosphorylated; also called KIR2DL5/3T3; WT KIR2DL5
Description: Specifically, a cell-based binding assay was performed by incubating PVR-Ig fusion protein with KIR2DL5- or KIR2DL4-expressing 3T3 cells. Conversely, KIR2DL5 was selectively bound by PVR, but not by CD112 (also known as nectin-2), another ligand for TIGIT and DNAM-1 in the nectin/nectin-like family (FIG. 10A). Furthermore, anti-KIR2DL5 mAb F8B30 blocked KIR2DL5-PVR interaction (EC₅₀=0.095 μM) (FIG. 10B). The specificity of KIR2DL5 binding to PVR was also evidenced by an intercellular interaction assay, in which 3T3 cells expressing PVR interacted with 3T3 cells expressing KIR2DL5, but not with cells expressing KIR3DL3 (FIG. 18B), a newly identified inhibitory receptor of HHLA2 (Zang, 2022; Wei 2021; Bhatt 2021).
Fusion protein cell binding assays. PVR-Ig, CD112-Ig, or hIgG (R&D Systems) was incubated with corresponding 3T3 cells on ice for 45 minutes, followed by incubation with APC- or PE-conjugated anti-human IgG Fc antibody (1:100; clone HP6017, BioLegend) on ice for 30 minutes. Cells were then acquired on an LSR II flow cytometer (BD Biosciences). In the anti-KIR2DL5 mAb blocking assay, KIR2DL5/3T3 cells were preincubated with a serial concentration of anti-KIR2DL5 mAb F8B30 or mIgG1 on ice for 30 minutes. After washing, the cells were then incubated with 20 μg/mL PVR-Ig or hIgG on ice for 45 minutes, followed by incubation with APC anti-human IgG Fc antibody on ice for 30 minutes. […]

[2] = target: T2, D0-deleted KIR2DL5 expressed on 3T3 cells (human, UniProt Q8N109 119-375); experiment: flow cytometry, transduced 3T3 cells
T2 construct: the signal peptide 1-21 is left out; also called KIR2DL5 dD0; DO-deleted KIR2DL5
T2 sequence (Q8N109 119-375, stated change not applied): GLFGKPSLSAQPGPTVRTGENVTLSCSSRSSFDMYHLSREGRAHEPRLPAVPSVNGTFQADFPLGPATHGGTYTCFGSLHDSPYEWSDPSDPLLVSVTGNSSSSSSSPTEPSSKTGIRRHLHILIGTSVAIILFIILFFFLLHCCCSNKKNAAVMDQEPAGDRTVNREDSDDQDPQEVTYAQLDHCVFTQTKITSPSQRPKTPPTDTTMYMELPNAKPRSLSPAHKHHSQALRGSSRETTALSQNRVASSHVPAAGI
Description: FIG. 8A-8D: Generation and characterization of anti-KIR2DL5-specific mAbs. (A) The specificity of anti-KIR2DL5 mAb clone F8B30. 3T3 cells transduced with indicated KIR family members were stained with 5 μg/mL of F8B30 (open) or mIgG1 (shaded). (B) 3T3 cells transduced with DO-deleted (KIR2DL5 dD0) or D2-deleted KIR2DL5 (KIR2DL5 dD2) were stained with 5 μg/mL of clone F8B30 or commercial clone UP-R1. (C) Anti-KIR2DL5 mAb clone F8B30 recognized different KIR2DL5A and 5B alleles. 3T3 cells transduced with indicated alleles were stained with 5 μg/mL of F8B30 or UP-R1 (open) or mIgG1 (shaded). (D) Anti-KIR2DL5 mAb clone F8B30 recognized different KIR2DL5 DO domain variants. 3T3 cells transduced with indicated DO variants were stained with 0.025 μg/mL of F8B30 or UP-R1 (open) or mIgG1 (shaded). In A-D, data are representative of 2 independent experiments.

[3] = target: KIR2DL5 D0 variant T46S expressed on 3T3 cells (human, UniProt Q8N109 22-375); experiment: flow cytometry on 3T3 cells expressing the KIR2DL5 D0 variant
KIR2DL5 D0 variant T46S expressed on 3T3 cells, sequence (Q8N109 22-375 T46S): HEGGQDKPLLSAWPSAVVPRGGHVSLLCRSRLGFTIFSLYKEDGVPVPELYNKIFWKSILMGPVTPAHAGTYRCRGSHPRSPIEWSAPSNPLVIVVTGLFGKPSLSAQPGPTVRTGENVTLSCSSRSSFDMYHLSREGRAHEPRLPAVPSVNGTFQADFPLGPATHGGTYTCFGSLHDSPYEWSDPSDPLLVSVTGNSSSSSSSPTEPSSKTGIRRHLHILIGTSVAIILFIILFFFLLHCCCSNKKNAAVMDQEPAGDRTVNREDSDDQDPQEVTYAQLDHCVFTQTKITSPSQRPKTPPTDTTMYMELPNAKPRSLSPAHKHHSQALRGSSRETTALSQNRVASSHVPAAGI

[4] = target: KIR2DL5 D0 variant P112S expressed on 3T3 cells (human, UniProt Q8N109 22-375); experiment: as above
KIR2DL5 D0 variant P112S expressed on 3T3 cells, sequence (Q8N109 22-375 P112S): as the sequence (Q8N109 22-375 T46S) above, with S25T, P91S counted along it

[5] = target: KIR2DL5 D0 variant R52H expressed on 3T3 cells (human, UniProt Q8N109 22-375); experiment: as above
KIR2DL5 D0 variant R52H expressed on 3T3 cells, sequence (Q8N109 22-375 R52H): as the sequence (Q8N109 22-375 T46S) above, with S25T, R31H counted along it

[6] = target: KIR2DL5 D0 variant G97S expressed on 3T3 cells (human, UniProt Q8N109 22-375); experiment: as above
KIR2DL5 D0 variant G97S expressed on 3T3 cells, sequence (Q8N109 22-375 G97S): as the sequence (Q8N109 22-375 T46S) above, with S25T, G76S counted along it

[7] = target: T3, KIR2DL5-Ig fusion protein (KIR2DL5 extracellular domain fused to human IgG1 Fc) (human, UniProt Q8N109 22-240); experiment: BLI, Octet RED96; KIR2DL5-Ig captured on anti-human Fc biosensors, mAb in solution; global 1:1 fit
T3 construct: A D0-only fusion (H22-A128) also exists; also called KIR2DL5-human Ig fusion protein; KIR2DL5 DO-D2-Ig; not shown: human IgG1 Fc tag
T3 sequence (Q8N109 22-240): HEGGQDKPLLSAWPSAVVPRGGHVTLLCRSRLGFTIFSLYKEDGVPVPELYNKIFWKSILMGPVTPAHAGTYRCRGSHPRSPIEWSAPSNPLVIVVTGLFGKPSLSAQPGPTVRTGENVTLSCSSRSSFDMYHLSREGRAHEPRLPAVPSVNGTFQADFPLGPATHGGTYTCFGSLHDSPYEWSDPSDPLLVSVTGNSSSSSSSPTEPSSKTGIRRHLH
Description: Biolayer interferometry. The affinities of anti-KIR2DL5 mAbs were analyzed by biolayer interferometry using an Octet RED96 system (ForteBio, Pall LLC). Briefly, anti-human Fc capture biosensors (ForteBio, Pall LLC) were preloaded with KIR2DL5-Ig and then dipped into a solution containing mAb at 2-fold serial dilutions (from 200 to 1.5 μg/mL). Data were analyzed using Forte Pall (Port Washington, New York, USA) software 9.0. The global data fitting to a 1:1 binding model was used to estimate values for the Kₒₙ (association rate constant), Koff (dissociation rate constant), and KD (equilibrium dissociation constant).

EC50 [1]: 95 nM
binding result [2]: no binding (tested: 5 µg/mL)
EC50 [3]: 8.6 nM
EC50 [4]: 9.4 nM
EC50 [5]: 9.2 nM
EC50 [6]: 43.6 nM
Kd [7]: 0.723 nM
koff [7]: 0.000444 s⁻¹
kon [7]: 615000 M⁻¹ s⁻¹
B1: anti-KIR2DL5 mAb clone F8B30 (antibody, V domains shown)
VH: QIQLVQSGPELKKPGETVKISCKASGYTFTDYSMHWVKQAPGKGLKWMGWINTETGGPTYADDFKGRFAFSLETSATTAYLQINNLKNEDTATYFCSRDVDLYFDYWGQGTTLTVS
VL: DIQMTQSPASLSASVGETVTITCRTSENIYSYLAWYQQKQGKSPQLLVYNAKTLVEGVPSRFSGSGSGTQFSVKINSLQPEDFGNYYCQHHYGIPFTFGGGTKLEIK
notes: also called F8B30 (IgG1, κ)

Reference: US20250019435A1 (ALBERT EINSTEIN COLLEGE OF MEDICINE, published 2025)
